Experimental data reported in patent US11717557B2, “Use of PRG4 as an anti-inflammatory agent” (Lubris LLC, priority 2015, dated 2023).

Key:
CD44 = target: T1, CD44 (Homo sapiens, UniProt P16070); experiment: Concentration-dependent binding to CD44, direct ELISA
T1 construct: purchased R & D systems
Description: (§1) High-binding microtiter plates (Corning, Sigma Aldrich, USA) were coated with rhPRG4 (Mr≅240 KDa), high molecular weight HA (HMW HA; Mr≈1,500 KDa) (R & D System, USA), medium molecular weight HA (MMW HA; Mr≈300 KDa) (R & D System) and vitronectin (Mr≅75 KDa) (Sigma Aldrich) at 400 μg/mL in PBS buffer (100 μL per well) overnight at 4° C. rhPRG4 is a full-length product produced by CHO-M cells (Lubris, Framingham, Mass., USA). Following washing with PBS+0.1% Tween 20, wells were blocked with 2% bovine serum albumin (BSA; 300 μL per well) for at least 2 hours at room temperature. CD44-IgG1Fc (R & D systems) or IgG1Fc (R & D systems), each at 1 μg/mL (100 μl per well), were added to the plate and incubated for 60 min at room temperature. Following washing with PBS+0.1% tween 20, anti-IgG1Fc-HRP (Sigma Aldrich) was added at 1:10,000 dilution (100 μL per well) and incubated for 60 min at room temp. Following washing with PBS+0.1% tween 20, the assay was developed using 1-step Turbo TMB ELISA reagent (ThermoScientific, USA) and absorbance was measured at 450 nm. The data represents an average of 4 independent assays, each with triplicate wells per group.
The concentration-dependent binding of rhPRG4, HMW HA and MMW HA to CD44 was performed by coating microtiter plates with 400, 200, 100, 20, 4, 2 and 0.1 μg/mL of the macromolecules. The assay was performed as described above. The absorbance values in the IgG1Fc wells were subtracted from the absorbance values in the CD44 IgG1Fc wells and the corrected CD44 IgG1Fc absorbance values were normalized to those of the 400 μg/mL rhPRG4 group and data was expressed as percentage binding to CD44. The concentration-dependent binding of rhPRG4, HMW HA and MMW HA to recombinant CD44 is depicted in FIG. 1B. […] The data represents an average of 4 independent assays, each with triplicate wells per group.

[1] = tested on: osteoarthritic (OA) synovial fluid cells; experiment: Cytokines secreted by osteoarthritic synoviocytes (Luminex); assay type: cell-based, human; conditions: rhPRG4 90 μg/mL, 24 hours, versus PBS
Description: (§2) Synovial fluid cells were obtained from normal and osteoarthritic (OA) patients and purified with CD90+ following an immune cell depletion. The cells were plated at 10,000 per well and suspended in media containing DMEM, heat-inactivated Hyclone FBS (10%), and Anti-Anti (1%). The assays contained the cell suspension (cells+ media) at 180 μL and the ligands at 20 μL for a total volume of 200 μL. Recombinant lubricin (rhPRG4) was then introduced to the cells at a concentration of 90 μg/mL and the negative control was PBS. The plate was then incubated at 37° C. at 5% CO2 for 24 hours, after which the supernatants were collected for cytokine analysis via the Luminex multiplex platform.

CD44 IgG1Fc = target: T2, CD44 IgG1Fc (Homo sapiens, UniProt P16070); experiment: Direct ELISA: binding of coated macromolecules to CD44-IgG1Fc versus IgG1Fc; conditions: wells coated at 400 μg/mL; CD44-IgG1Fc or IgG1Fc 1 μg/mL; p<0.001 where significant
T2 construct: purchased R & D systems
Description: as §1

Prg4−/− synoviocytes = experiment: Cytokine-induced Prg4−/− synoviocyte proliferation; assay type: cell-based, mice; conditions: p<0.001
Description: rhPRG4 binding to CD44 and competition with high molecular weight hyaluronic acid (HMW HA) was evaluated using a direct enzyme linked immunosorbent assay (ELISA) and surface plasmon resonance. Sialidase-A and O-glycosidase digestion of rhPRG4 was performed and CD44 binding was evaluated using ELISA. Rheumatoid arthritis fibroblast-like synoviocytes (RA-FLS) were stimulated with interleukin-1 beta (IL-1β) or tumor necrosis factor alpha (TNF-α) for 48 hours in the presence or absence of rhPRG4 or HMW HA at 20, 40 and 80 μg/mL and cell proliferation was measured. CD44 contribution was assessed by co-incubation with an anti-CD44 antibody (IM7). The anti-proliferative effect of rhPRG4 was investigated following treatment of Prg4−/− synoviocytes with IL-1β or TNF-α in the presence or absence of IM7.
Synovial tissue was harvested from Prg4−/− and Prg4+/+ male mice (8-10 weeks old; 5-8 animals per genotype) and digested with pronase enzyme (2 mg/mL; Sigma Aldrich) in sterile HBSS buffer for 30 min at 37° C. with shaking. This was followed by digestion with type I collagenase (1 mg/mL; Sigma Aldrich) for 4 hours at 37° C. with shaking. The enzymatic reaction was stopped using DMEM+10% FBS. Cells were grown in DMEM+10% FBS and Prg4−/− synoviocytes were used between 2nd and 4th passages while Prg4+/+ synoviocytes were used in their second passage.

[2] = tested on: sodium urate crystal induced joint pain; experiment: Urate crystal gout model, Von Frey paw withdrawal; assay type: in vivo; conditions: rhPRG4 injection after urate crystals; two rats per group
Description: Male Lewis rats (10 weeks old; n=4) were injected with MSU suspension (50 μL; 5 mg/mL; Invivogen, California) in their knee joints. At 1 hour following MSU injection, rat knee joints were treated with 50 μL phosphate buffered saline (PBS; n=2) or rhPRG4 (50 μL; 2 mg/mL) (n=2). Paw withdrawal pressures were measured using an electronic Von Frey instrument, and data is present as percent change from baseline values.
Rats undergoing injection of sodium urate crystals were studied as a model of gout. 24 hours following the sodium urate crystal administration, rats developed joint pain. Two rats received saline while another two rats received rhPRG4 injection 24 hours after the urate crystals were introduced. These rats were studied every 12 hours utilizing the Von Frey method. This method determines afferent pain sensitization as a result of joint inflammation by probing the paws of the affected limb with a thin filament wire.

[3] = tested on: normal synovial fluid cells; experiment: Cytokines secreted by normal synoviocytes (Luminex); assay type: cell-based, human; conditions: rhPRG4 90 μg/mL, 24 hours, lubricin vs. PBS
Description: as §2

T1 sequence (P16070 with tags, fused parts or gaps limits assumed): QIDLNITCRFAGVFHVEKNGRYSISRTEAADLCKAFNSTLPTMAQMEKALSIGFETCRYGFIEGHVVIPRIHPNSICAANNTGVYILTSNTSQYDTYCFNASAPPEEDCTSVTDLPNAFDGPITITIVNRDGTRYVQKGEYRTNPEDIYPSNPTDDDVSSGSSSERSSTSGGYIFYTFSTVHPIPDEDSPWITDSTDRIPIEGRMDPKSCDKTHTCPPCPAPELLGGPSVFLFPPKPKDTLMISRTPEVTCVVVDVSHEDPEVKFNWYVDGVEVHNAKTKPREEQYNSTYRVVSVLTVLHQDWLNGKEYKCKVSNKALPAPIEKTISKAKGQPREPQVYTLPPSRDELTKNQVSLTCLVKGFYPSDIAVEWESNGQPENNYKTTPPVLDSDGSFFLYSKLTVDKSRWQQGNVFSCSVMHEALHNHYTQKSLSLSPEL
T2 sequence (P16070 with tags, fused parts or gaps limits assumed): as above

## rhPRG4: full-length recombinant human PRG4 (lubricin) glycoprotein produced by CHO-M cells (Lubris), Mr≅240 KDa
CD44
  affinity of concentration-dependent binding to CD44: comparable affinity to HMW HA
CD44; coating 0.1 μg/mL
  percentage CD44 binding, difference between rhPRG4, HMW HA and MMW HA-coated wells: no significant differences
CD44; coating 200 μg/mL, p<0.001
  percentage recombinant CD44 binding compared to MMW HA coated wells: significantly higher
CD44; coating 400, 100, 20, 4 and 2 μg/mL, p<0.001
  percentage recombinant CD44 binding compared to HMW HA or MMW HA-coated wells: significantly higher
[1]
  FGF-2 and IL-1Ra cytokines: down-regulation
CD44 IgG1Fc
  450 nm absorbance in the CD44-IgG1Fc group versus the IgG1Fc group: significantly higher
Prg4−/− synoviocytes
  IL-1β induced proliferation of Prg4−/− synoviocytes: significantly inhibited
  TNF-α induced proliferation of Prg4−/− synoviocytes: significantly inhibited
[2]
  pain (Von Frey method) versus rats which received placebo: less pain
[3]
  cytokine response: did not show any changes
